Experimental findings from paper PMC5916898, “Global profiling of protein–DNA and protein–nucleosome binding affinities using quantitative mass spectrometry” are described below.

Data set [1] concerns the target ZNF24 (Homo sapiens, UniProt P17028). The experiment in a line: pulldown; 150 mM NaCl, 50 mM Tris pH 8, 0.25% NP-40, 1 mM TCEP; 4 C, 2 h; 100 ug HeLa nuclear lysate. The following applies: protein: extract; label: 5' biotin (strand 1).
The target in data set [2] is T1, ZNF281 (Homo sapiens, UniProt Q9Y2X9).
T1 sequence: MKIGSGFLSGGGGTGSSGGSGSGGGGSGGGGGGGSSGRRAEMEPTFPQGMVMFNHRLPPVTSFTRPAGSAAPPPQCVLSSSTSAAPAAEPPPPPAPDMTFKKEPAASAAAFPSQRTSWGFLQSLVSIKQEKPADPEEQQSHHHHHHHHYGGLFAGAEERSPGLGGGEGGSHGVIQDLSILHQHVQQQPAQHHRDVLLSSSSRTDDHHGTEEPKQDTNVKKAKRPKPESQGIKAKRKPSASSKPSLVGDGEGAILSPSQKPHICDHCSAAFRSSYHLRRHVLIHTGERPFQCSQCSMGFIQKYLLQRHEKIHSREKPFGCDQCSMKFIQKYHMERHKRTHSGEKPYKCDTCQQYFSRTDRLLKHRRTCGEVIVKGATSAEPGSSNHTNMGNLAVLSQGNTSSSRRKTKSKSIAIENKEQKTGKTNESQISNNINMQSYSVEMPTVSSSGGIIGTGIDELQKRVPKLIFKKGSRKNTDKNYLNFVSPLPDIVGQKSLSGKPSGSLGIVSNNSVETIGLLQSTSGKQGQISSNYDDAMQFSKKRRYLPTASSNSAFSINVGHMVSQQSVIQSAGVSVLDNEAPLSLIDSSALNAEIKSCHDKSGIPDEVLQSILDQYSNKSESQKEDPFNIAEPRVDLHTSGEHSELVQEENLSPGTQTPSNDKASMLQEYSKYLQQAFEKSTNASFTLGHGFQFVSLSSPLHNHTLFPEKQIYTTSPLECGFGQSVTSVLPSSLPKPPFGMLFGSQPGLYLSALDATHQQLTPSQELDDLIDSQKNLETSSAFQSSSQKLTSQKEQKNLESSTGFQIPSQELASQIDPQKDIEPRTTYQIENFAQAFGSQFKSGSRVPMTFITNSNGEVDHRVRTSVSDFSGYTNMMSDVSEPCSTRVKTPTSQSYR
The experiment in a line: competition; 150 mM NaCl, 50 mM Tris pH 8, 0.25% NP-40, 1 mM TCEP; 4 C, 2 h; 100 ug HeLa nuclear lysate; free competitor against 200 nM immobilised SP/KLF wild-type. To be noted: protein: extract.

The target in data set [3] is KLF10 (Homo sapiens, UniProt Q13118). Described as above. To be noted: protein: extract.
Sequence of KLF10 (Q13118 whole entry): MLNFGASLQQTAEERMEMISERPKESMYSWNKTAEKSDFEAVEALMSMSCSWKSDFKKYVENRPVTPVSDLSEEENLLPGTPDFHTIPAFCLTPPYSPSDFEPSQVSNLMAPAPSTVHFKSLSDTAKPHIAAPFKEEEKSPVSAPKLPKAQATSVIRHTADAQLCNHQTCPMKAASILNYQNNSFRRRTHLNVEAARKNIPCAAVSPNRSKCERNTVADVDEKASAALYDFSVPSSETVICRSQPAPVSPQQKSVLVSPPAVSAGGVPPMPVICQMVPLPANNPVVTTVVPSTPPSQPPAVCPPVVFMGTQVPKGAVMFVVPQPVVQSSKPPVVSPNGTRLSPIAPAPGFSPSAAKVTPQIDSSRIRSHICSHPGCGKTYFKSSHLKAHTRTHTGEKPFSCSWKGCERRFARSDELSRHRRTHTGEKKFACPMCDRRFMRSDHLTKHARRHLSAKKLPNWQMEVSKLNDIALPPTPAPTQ
The target in data set [4] is ZBTB7A (Homo sapiens, UniProt O95365). The description is as above. The following applies: protein: extract.
Sequence of ZBTB7A (O95365 whole entry): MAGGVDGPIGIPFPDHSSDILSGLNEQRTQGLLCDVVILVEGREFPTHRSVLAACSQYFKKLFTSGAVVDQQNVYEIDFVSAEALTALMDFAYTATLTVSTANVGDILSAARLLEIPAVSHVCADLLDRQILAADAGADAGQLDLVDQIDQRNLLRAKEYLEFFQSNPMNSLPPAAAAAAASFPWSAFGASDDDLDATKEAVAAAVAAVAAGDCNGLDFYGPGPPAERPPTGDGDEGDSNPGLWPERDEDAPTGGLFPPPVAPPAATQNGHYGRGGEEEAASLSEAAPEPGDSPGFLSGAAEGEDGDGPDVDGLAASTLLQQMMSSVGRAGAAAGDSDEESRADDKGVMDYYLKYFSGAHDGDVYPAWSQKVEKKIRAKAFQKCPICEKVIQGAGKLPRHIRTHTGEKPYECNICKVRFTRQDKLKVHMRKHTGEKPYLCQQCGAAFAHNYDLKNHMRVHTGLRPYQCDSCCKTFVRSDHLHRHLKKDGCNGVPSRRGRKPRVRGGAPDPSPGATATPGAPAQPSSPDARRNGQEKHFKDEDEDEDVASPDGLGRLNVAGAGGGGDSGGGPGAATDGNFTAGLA
In data set [5] the target is KLF3 (Homo sapiens, UniProt P57682). The description is as above. The following applies: protein: extract.
Sequence of KLF3 (P57682 whole entry): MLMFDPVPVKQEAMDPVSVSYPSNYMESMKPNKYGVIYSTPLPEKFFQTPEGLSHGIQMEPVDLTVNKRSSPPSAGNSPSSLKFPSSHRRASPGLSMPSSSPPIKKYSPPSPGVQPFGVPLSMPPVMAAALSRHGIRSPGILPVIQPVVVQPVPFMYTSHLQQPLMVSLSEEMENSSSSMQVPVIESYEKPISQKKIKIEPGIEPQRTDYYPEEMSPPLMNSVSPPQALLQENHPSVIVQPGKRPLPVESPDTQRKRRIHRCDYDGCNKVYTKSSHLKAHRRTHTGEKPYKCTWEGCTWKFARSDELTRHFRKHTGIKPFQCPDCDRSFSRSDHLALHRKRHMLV
Data set [6] addresses SP4 (Homo sapiens, UniProt Q02446). The data set is described as above. To be noted: protein: extract.
Data set [7] has as its target KLF13 (Homo sapiens, UniProt Q9Y2Y9). The data set is described as above. To be noted: protein: extract.
Data set [8] addresses TFAP2A (Homo sapiens, UniProt P05549). The data set is described as above. The following applies: protein: extract.
In data set [9] the target is T2, VEZF1 (Homo sapiens, UniProt Q14119).
T2 sequence: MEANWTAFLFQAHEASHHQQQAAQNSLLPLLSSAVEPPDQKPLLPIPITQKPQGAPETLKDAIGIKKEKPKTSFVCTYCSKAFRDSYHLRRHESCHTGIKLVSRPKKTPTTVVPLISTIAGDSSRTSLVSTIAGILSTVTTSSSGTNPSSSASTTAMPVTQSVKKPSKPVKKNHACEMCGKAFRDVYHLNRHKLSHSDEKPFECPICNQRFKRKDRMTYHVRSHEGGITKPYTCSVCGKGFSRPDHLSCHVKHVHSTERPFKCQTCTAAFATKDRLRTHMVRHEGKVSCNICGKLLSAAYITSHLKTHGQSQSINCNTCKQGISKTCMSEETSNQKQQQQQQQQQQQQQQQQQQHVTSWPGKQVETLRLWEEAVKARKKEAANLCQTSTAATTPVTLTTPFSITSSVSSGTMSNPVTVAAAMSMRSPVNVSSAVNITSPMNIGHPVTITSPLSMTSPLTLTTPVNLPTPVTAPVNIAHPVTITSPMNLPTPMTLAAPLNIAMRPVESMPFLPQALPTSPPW
Described as above. To be noted: protein: extract.

Data set [10] addresses SP1 (Homo sapiens, UniProt P08047). The description is as above. To be noted: protein: extract.

Sequence of TFAP2A (P05549 whole entry): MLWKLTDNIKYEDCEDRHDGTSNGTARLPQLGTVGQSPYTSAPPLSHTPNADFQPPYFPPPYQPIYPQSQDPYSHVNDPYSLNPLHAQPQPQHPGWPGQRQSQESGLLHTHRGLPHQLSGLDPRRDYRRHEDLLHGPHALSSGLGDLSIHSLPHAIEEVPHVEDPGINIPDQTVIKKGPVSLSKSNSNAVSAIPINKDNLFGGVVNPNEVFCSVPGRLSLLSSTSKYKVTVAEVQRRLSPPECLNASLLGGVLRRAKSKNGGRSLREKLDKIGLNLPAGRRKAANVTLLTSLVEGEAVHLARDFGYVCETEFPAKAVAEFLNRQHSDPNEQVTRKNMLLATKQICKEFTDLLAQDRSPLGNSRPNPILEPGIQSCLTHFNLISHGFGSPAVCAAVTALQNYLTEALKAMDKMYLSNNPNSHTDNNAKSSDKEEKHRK
Sequence of KLF13 (Q9Y2Y9 whole entry): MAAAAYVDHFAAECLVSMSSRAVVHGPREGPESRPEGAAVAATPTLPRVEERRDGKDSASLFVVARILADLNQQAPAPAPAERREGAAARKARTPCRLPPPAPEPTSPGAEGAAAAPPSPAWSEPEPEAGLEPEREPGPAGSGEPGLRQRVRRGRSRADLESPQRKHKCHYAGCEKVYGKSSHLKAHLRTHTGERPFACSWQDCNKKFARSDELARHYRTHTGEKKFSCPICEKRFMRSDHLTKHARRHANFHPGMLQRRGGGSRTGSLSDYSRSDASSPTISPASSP
Sequence of ZNF24 (P17028 whole entry): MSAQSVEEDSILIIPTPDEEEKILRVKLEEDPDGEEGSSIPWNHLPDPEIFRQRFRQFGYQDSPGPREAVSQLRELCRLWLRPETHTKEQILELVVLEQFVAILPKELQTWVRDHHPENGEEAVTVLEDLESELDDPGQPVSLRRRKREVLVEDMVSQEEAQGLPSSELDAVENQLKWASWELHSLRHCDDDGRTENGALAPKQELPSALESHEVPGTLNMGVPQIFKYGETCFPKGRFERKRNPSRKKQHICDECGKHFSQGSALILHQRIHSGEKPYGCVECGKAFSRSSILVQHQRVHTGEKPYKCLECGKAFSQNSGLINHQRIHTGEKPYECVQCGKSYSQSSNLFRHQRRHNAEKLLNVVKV
Sequence of SP1 (P08047 whole entry): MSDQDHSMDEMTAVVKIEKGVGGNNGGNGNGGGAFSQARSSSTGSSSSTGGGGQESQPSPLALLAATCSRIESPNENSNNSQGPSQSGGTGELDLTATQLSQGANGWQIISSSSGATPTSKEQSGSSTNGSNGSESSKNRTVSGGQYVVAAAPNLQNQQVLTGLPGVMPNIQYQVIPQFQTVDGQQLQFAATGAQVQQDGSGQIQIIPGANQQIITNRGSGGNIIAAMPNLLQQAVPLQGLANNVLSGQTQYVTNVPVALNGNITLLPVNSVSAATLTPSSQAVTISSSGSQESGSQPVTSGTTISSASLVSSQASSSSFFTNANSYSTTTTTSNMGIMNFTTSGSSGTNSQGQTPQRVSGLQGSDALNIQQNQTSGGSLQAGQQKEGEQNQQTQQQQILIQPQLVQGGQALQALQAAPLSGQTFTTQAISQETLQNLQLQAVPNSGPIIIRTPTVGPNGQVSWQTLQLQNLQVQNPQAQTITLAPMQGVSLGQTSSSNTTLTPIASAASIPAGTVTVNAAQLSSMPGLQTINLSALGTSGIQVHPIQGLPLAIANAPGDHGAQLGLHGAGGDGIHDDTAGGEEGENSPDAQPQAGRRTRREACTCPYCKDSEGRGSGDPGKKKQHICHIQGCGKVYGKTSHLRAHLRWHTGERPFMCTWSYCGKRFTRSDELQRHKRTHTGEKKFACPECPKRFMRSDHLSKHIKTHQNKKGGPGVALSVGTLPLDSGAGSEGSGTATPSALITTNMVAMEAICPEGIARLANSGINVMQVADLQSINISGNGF
Sequence of SP4 (Q02446 whole entry): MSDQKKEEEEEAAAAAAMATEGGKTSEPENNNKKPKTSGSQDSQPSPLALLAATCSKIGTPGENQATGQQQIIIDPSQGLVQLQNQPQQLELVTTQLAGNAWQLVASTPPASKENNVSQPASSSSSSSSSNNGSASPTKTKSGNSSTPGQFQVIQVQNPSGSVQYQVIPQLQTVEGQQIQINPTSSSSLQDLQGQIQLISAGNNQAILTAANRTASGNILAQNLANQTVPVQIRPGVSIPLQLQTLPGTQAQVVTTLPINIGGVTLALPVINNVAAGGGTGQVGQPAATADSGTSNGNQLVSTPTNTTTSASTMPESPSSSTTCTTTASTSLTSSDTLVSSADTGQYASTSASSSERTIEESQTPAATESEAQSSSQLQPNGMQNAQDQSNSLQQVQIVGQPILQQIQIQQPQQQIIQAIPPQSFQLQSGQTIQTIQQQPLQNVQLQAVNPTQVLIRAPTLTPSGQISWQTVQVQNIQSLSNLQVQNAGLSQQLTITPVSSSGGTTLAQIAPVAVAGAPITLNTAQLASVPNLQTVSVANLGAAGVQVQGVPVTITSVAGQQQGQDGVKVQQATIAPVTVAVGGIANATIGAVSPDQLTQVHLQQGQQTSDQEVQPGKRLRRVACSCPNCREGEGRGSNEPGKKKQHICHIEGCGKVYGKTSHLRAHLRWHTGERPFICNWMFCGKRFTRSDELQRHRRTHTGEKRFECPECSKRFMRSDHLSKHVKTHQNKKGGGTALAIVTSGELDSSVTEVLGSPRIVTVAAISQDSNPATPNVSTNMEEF

B1: CTCF (dsDNA)
DNA 1: TCAGAGTGGCGGCCAGCAGGGGGCGCCCTTGCCAGA
DNA 2: TCTGGCAAGGGCGCCCCCTGCTGGCCGCCACTCTGA
On to B1, for which the “apparent K (half saturation)” value in data set [1] stood at 388 nM.

B2: SP/KLF wild-type (dsDNA)
DNA 1: GAGAGCCCCGCCCCCTGGCT
DNA 2: AGCCAGGGGGCGGGGCTCTC
In the case of B2, the IC50 was 176 nM in [2]; 111 nM in data set [3]; 263 nM in data set [4]; 112 nM in [5]; 87.5 nM in [6]; 86.2 nM in data set [7]. Also, the 50% inhibitory concentration (IC50) in [8] was found to be 215 nM; in [9], 270 nM; in [10] it was 192 nM.
